Experimental data: PMC4760375, “A dual phosphorylation switch controls 14-3-3-dependent cell surface expression of TASK-1” (Journal of Cell Science, 2016)
Non-standard residues stand in square brackets, D forms with d. No end group written: not given here. pS = N[C@@H](COP(=O)(O)O)C(=O)O

Columns and labels:
[1] = biological target: TASK-1 pS392 C-terminal fluorescent peptide (human) (UniProt O14649); assay: fluorescence polarisation; 10 nM fluorescein-labelled peptide titrated with 14-3-3 protein (1 nM to 120 µM in the results, 100 µM to 1 nM in the methods); 20 mM MOPS, 150 mM NaCl, 0.005% (v/v) CHAPS pH 7.0; room temperature; monophasic fit
[2] = biological target: doubly phosphorylated TASK-1 C-terminal fluorescent peptide (pS392 and pS393) (human) (UniProt O14649); assay: as above
[3] = biological target: GST-tagged TASK-3 C-terminal 15 residues fusion protein, phosphorylated with PKA catalytic subunit (human) (UniProt Q9NPC2); assay: SPR; GST fusion protein captured by an anti-GST antibody on an HC1000m chip, phosphorylated on the chip with PKA catalytic subunit; 14-3-3 proteins as analyte; 20°C; 150 mM NaCl, 20 mM HEPES, 0.005% (v/v) Tween 20, pH 7.5; equilibrium binding isotherms
[4] = biological target: 14-3-3γ (UniProt P61981); assay: fluorescence polarization titration; settings: reference: unphosphorylated peptide
[5] = biological target: 14-3-3ζ (UniProt P63104); assay: fluorescence polarization titration; settings: reference: unphosphorylated peptide
[6] = biological target: 14-3-3η (UniProt Q04917); assay: fluorescence polarization titration; settings: reference: unphosphorylated peptide; sites S393
[7] = biological target: T1, 14-3-3σ (human, UniProt P31947 1-248); assay: fluorescence polarization titration; settings: reference: unphosphorylated peptide; sites S393
T1 chain: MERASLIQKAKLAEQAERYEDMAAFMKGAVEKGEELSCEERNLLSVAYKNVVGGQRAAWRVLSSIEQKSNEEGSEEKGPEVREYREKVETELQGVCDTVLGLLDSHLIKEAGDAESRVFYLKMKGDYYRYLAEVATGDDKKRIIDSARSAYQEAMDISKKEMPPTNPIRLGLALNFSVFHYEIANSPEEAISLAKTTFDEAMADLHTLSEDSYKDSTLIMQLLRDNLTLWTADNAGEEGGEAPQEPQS

[8] = biological target: T2, 14-3-3ε (human, UniProt P62258 1-255); assay: fluorescence polarization titration; settings: reference: unphosphorylated peptide
T2 chain: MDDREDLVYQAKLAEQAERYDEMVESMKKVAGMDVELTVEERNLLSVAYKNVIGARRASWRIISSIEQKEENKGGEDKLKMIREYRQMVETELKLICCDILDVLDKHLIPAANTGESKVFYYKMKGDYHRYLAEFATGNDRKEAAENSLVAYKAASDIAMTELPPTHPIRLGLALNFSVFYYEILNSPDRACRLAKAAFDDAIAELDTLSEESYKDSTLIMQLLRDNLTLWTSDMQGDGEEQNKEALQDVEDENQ

[9] = biological target: 14-3-3τ (UniProt P27348); assay: fluorescence polarization titration; settings: reference: unphosphorylated peptide; sites S373
[10] = biological target: T3, 14-3-3β (human, UniProt P31946 1-246); assay: fluorescence polarization titration; settings: reference: unphosphorylated peptide; sites S373
T3 chain: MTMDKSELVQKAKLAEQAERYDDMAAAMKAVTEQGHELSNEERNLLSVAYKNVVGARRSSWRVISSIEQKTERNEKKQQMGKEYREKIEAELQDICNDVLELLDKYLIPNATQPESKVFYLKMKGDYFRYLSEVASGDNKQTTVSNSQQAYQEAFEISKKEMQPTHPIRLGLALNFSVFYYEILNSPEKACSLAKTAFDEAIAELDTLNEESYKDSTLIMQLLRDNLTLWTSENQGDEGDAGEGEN

[11] = biological target: T4, 14-3-3η (human, UniProt Q04917 1-246); assay: FP
T4 chain: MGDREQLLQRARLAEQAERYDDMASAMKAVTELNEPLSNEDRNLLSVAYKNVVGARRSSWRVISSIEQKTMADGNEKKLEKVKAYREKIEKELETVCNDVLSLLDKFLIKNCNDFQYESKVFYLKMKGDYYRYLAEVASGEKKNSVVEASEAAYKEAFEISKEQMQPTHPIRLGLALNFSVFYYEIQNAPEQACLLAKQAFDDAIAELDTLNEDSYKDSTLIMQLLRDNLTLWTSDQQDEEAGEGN

[12] = biological target: T5, 14-3-3ζ (human, UniProt P63104 1-245); assay: FP
T5 chain: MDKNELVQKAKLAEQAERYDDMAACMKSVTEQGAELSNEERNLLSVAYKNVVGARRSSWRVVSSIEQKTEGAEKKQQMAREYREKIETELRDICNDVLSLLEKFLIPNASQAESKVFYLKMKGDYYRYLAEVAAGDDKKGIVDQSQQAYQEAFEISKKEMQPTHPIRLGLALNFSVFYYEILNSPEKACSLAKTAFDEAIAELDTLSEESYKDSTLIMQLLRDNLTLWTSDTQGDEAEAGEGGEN

[13] = biological target: T1, 14-3-3σ; assay: FP
[14] = biological target: T6, 14-3-3γ (human, UniProt P61981 1-247); assay: FP
T6 chain: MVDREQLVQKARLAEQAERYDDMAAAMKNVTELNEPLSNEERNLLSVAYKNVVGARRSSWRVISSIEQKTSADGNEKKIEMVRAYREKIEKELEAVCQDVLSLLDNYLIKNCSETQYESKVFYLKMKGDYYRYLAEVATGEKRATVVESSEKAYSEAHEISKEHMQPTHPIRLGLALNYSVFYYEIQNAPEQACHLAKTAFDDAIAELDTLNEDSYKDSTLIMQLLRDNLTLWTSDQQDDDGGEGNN

[15] = biological target: T2, 14-3-3ε; assay: FP

14-3-3γ (from UniProt P61981 1-247) (natural protein)
Kd [1]: 100 µM | Kd [2]: 200 µM | Kd [3]: 0.045 µM

TASK-1 last 15 amino acids of the C-terminus (from UniProt O14649) pS393 peptide
binding against the reference ([4]; sites S393): gained | binding against the reference ([5]; sites S393): gained | binding against the reference [6]: gained | binding against the reference [7]: gained | binding against the reference ([8]; sites S393): gained

TASK-3 last 15 amino acids of the C-terminus (from UniProt Q9NPC2) pS373 peptide
binding against the reference ([4]; sites S373): gained | binding against the reference ([5]; sites S373): gained | binding against the reference [9]: gained | binding against the reference [10]: gained | binding against the reference ([8]; sites S373): gained

B1: TASK-1 pS393 C-terminal fluorescent peptide (last 15 amino acids) (peptide)
peptide: SLSTFRGLMKRRS[pS]V
modifications: also: fluorescein label, position not given here
Kd [11]: 9.2 µM | Kd [12]: 23 µM | Kd [13]: 36 µM | Kd [14]: 9.8 µM | Kd [15]: 29 µM
